{
  "source": "patent US7625707B2",
  "about": "“Antibacterial agents and methods of identifying and utilizing same” (Ramot At Tel Aviv University Ltd., priority 2003, dated 2009)",
  "molecules": {"B1": {"name": "YoeB: E. coli toxin polypeptide, SEQ ID NO: 77 (protein, listed as Escherichia coli)", "chain": "MKLIWSEESWDDYLYWQETDKRIVKKINELIKDTRRTPFEGKGKPEPLKHNLSGFWSRRITEEHRLVYAVTDDSLLIAACRYHY"}, "B2": {"name": "YefM: E. coli antitoxin polypeptide, 92 amino acids, SEQ ID NO: 76, natively unfolded (protein, listed as Escherichia coli)", "chain": "MNCTKEEIDMRTISYSEARQNLSATMMKAVEDHAPILITRQNGEACVLMSLEEYNSLEETAYLLRSPANARRLMDSIDSLKSGKGTEKDIIE"}, "B3": {"name": "YefM and YoeB: toxin-antitoxin pair co-overexpressed in E. coli TOP10 from pBAD-yefMyoeB (protein, UniProt P69346 1-83; P69348 1-84, looked up)", "Antitoxin YefM": "MRTISYSEARQNLSATMMKAVEDHAPILITRQNGEACVLMSLEEYNSLEETAYLLRSPANARRLMDSIDSLKSGKGTEKDIIE", "Toxin YoeB": "B1 chain"}, "B4": {"name": "YoeB-His: YoeB toxin expressed in fusion to myc-epitope and his-tag (protein)", "chain": "B1 chain", "modifications": "left off: small tags and cut ends"}},
  "key": {"[1]": {"target": "T1, GST-YoeB fusion protein (Escherichia coli, UniProt P69348)", "T1 construct": "made in house; host or cells: E. coli BL21(DE3) pLysS", "T1 sequence (P69348 1-84)": "B1 chain", "experiment": "Peptide array analysis of YefM tridecamer peptides probed with GST-YoeB", "type": "binding, E. coli", "method": "Peptide array analysis: Tridecamer peptides corresponding to consecutive overlapping sequences of the YefM polypeptide were arrayed on a cellulose membrane matrix and covalently bound to a Whatman 50 cellulose support (Whatman). Approximately 50 μg aliquots of soluble GST-YoeB fusion were examined for their selective peptide binding ability, on the basis of YefM-YoeB putative interaction.\nFor low stringency binding the cellulose membrane was briefly washed in 100% ethanol, washed three times with Tris-buffered saline (TBS; 50 mM Tris-HCl pH 7.5, 150 mM NaCl), then blocked for 4 hours using 5% (w/v) non-fat milk in TBS. The membrane was then washed three times in TBS+0.1% (v/v) tween 20 (TBS-T) and incubated with 10 ml GST-YoeB solution at 4° C. and slow shaking for 14 hours.\nFor high stringency binding the washing steps were extensive and multiple and the blocking solution washing step was reduced to a single brief wash.\nFollowing incubation, the membrane was washed once in TBS-T then supplemented with 10 ml suspension comprising TBS, mouse anti-GST antibody and horseradish peroxidase conjugated goat anti-mouse antibody in the appropriate titers. Following 1 hour incubation at room temperature the membrane was briefly washed with TBS-T and TBS. Bound GST-YoeB proteins were detected through an enhanced chemiluminescence reaction following an exposure to a sensitive film."}, "[2]": {"tested_on": "E. coli TOP10", "experiment": "Colony formation analysis of bacteria overexpressing YefM, YoeB or both", "conditions": "L-arabinose 0.0005-0.2% on LB-Amp agar, 37° C., 20 hours", "procedure": "(§1) The generated constructs were introduced to E. coli strain TOP10.\nColony formation analysis: E. coli TOP10 bacteria harboring pBAD-yefM, pBAD-yoeB, or pBAD-yefMyoeB, were cultured in LB-Amp and incubated at 37° C. overnight Following incubation the cultures were diluted to an A600 of 0.01 in a fresh LB-Amp and incubated at 37° C. until an absorbance of 0.5 at A600 was reached. The cultures were then diluted in ten-fold dilutions steps and applied as 5 μl droplets on LB-Amp agar plates containing L-arabinose at a concentration gradient of 0.2%, 0.1%, 0.05%, 0.02%, 0.005% and 0.0005%. An LB-Amp agar plate containing 0.2% glucose was used as a negative control. All plates were incubated at 37° C. for at least 20 hours."}, "[3]": {"tested_on": "E. coli TOP10", "experiment": "Growth rate analysis of bacteria overexpressing YefM, YoeB or both", "conditions": "0.2% L-arabinose induction compared with 0.2% glucose control, LB-Amp, 37° C.", "procedure": "as §1\nGrowth rate analysis: E. coli TOP10 bacteria transformed with pBAD-yefM, pBAD-yoeB, and pBAD-yefMyoeB were cultured in LB broth supplemented with 100 μg/ml ampicillin (LB-Amp) and incubated at 37° C. overnight. Following incubation, cultures were diluted in fresh LB-Amp and their optical density was adjusted to approximately 0.01 (A600). Each culture was then divided into two equal volumes. One volume was supplemented with 0.2% L-arabinose to induce expression of the target gene and the second volume was supplemented with 0.2% D-glucose to suppress expression. All cultures were incubated at 37° C. and 200 rpm for up to 9 hours. Cell density was estimated periodically by optical absorbance at 600 nm. The effect of target gene induction on bacterial growth during the logarithmic growth phase was determined as described above with the exception that cultures were divided and supplemented with 0.2% L-arabinose, or 0.2% D-glucose at the time they had reached optical density of approximately 0.45 (A600)."}, "[4]": {"conditions": "boiled 10 minutes, supernatant (FIG. 4D)"}, "[5]": {"experiment": "Thermal denaturation monitored by CD ellipticity at 222 nm", "type": "physicochemical", "conditions": "PBS pH 7.3", "method": "Circular Dichroism (CD): CD spectra were obtained by using an AVIV 202 spectrapolarimeter equipped with temperature-controlled sample holder and a 5 mm path length cuvette. Mean residual ellipticity, [θ], was calculated as, [θ]=[100×θ×m]/[c×L]\nThe identity of YefM and YoeB-His was verified using protein spots isolation from Coomassie blue stained gels and was accomplished by mass spectrometry, according to established protocols (Bandow, J. E., Becher, D., Buttner, K, Hochgrafe, F., Freiberg, C., Brotz, H. and Hecker, M. (2003) Proteomics. 3, 299-306). Briefly, protein spots were excised from stained gels and the gel pieces were treated trypsin solution (Pomega) for 16 h at 37° C. Peptides were extracted from gel onto a sample plate for MALDI-MS. Obtained peptides masses were determined in the positive ion reflector mode in a Voyager-DE STR mass spectrometer (Applied Biosystems). […] To determine the concentrations of YoeB-His and YefM polypeptides, tyrosine and tryptophan absorbance measurements in 0.1 M KOH were used. YefM concentration was calculated using the extinction coefficient of 2381 M^−1 cm^−1 at 293.2 nm for single tyrosine (4 tyr). YoeB-His concentration was calculated using extinction coefficient at 280 nm of 1507 M^−1 cm^−1 for single tyrosine (6 tyr) and 5377 M^−1 cm^−1 for single tryptophan (4 trp). […]"}},
  "data": [
    {"molecule": "CC[C@H](C)[C@H](NC(=O)[C@@H](NC(=O)[C@@H](N)CCCNC(=N)N)[C@@H](C)O)C(=O)N[C@@H](CO)C(=O)N[C@@H](Cc1ccc(O)cc1)C(=O)N[C@@H](CO)C(=O)N[C@@H](CCC(=O)O)C(=O)N[C@@H](C)C(=O)N[C@@H](CCCNC(=N)N)C(=O)N[C@@H](CCC(N)=O)C(=O)N[C@@H](CC(N)=O)C(=O)N[C@@H](CC(C)C)C(=O)N[C@@H](CO)C(=O)O", "note": "[YefM11-23]", "values": [
      {"measurement": "binding of YoeB-GST to arrayed tridecamer peptide", "setting": "[1]; high stringency, single amino-acid shift between peptides (FIG. 6B)", "value": "best binding"},
      {"measurement": "binding of YoeB-GST to arrayed tridecamer peptide", "setting": "[1]; low stringency, two amino-acids shift between peptides (FIG. 6A)", "value": "positively identified"}
    ]},
    {"molecule": "B1", "values": [
      {"measurement": "bacterial colony formation on overexpression", "setting": "[2]", "value": "inhibited"},
      {"measurement": "growth of bacteria overexpressing the polypeptide", "setting": "[3]", "value": "substantially reduced"}
    ]},
    {"molecule": "B2", "values": [
      {"measurement": "solubility during boiling", "setting": "[4]", "value": "extraordinary solubility"},
      {"measurement": "bacterial colony formation on overexpression", "setting": "[2]", "value": "inhibited"},
      {"measurement": "growth of bacteria overexpressing the polypeptide", "setting": "[3]", "value": "substantially reduced"}
    ]},
    {"molecule": "B3", "values": [
      {"measurement": "bacterial colony formation on overexpression", "setting": "[2]", "value": "unaffected"},
      {"measurement": "growth of bacteria overexpressing the polypeptide", "setting": "[3]", "value": "remained normal"}
    ]},
    {"molecule": "B4", "values": [
      {"measurement": "polypeptide melting point (TM)", "setting": "[5]", "value": "approximately 60 °C"}
    ]}
  ]
}
